Laboratory results reported in patent publication US20080176793A1, “UPREGULATING ACTIVITY OR EXPRESSION OF BDNF TO MITIGATE COGNITIVE IMPAIRMENT IN ASYMPTOMATIC HUNTINGTON'S SUBJECTS” (THE REGENTS OF THE UNIVERSITY OF CALIFORNIA, priority 2006, published 2008).

Tests used:
Type in all cases: cell-based
[1] = tested on: hippocampal slices from Hdh^Q111 mice; test: TBS-induced long-term potentiation (fEPSP slope) in acute hippocampal slices, field CA1
Procedure: (§1) Acute hippocampal slices were prepared, as described elsewhere (Kramar et al. (2004) J. Neurosci. 24: 5151-5161), from 8 week old Hdh^Q111, 24 week old Hdh^Q92 and age-matched WT mice and maintained at 32° C. in an interface chamber of local design. Synaptic responses (fEPSPs) were generated by stimulating the Schaffer-commissural afferents to the apical dendrites of field CA1b pyramidal cells using stimulating electrodes positioned in fields CA1a and CA1c. For baseline recording, fEPSPs were set to 30% of the maximum responses and low frequency stimulation (3 pulses/min) was delivered. The slope of the descending phase of the fEPSP was used as a measure of response size with all values normalized to a 15 min baseline period collected 1-2 h after slice preparation. LTP was induced with a single TBS train (ten bursts of 4 pulses at 100 Hz, inter-burst interval of 200 ms). BDNF (2 nM) was prepared and delivered to slices as described previously (Menalled (2005) NeuroRx 2: 465-470).
(§2) For all electrophysiology experiments, results are summarized in the text as a percent increase in responses from baseline. Data are presented as mean ±s.d. in the text and mean ±s.e.m. in the figures.

[2] = tested on: hippocampal slices from Hdh^Q111 mice; test: In situ rhodamine-phalloidin labeling of F-actin (TBS-induced actin polymerization in dendritic spines); details: BDNF 2 nM, Hdh^Q111 slices after TBS, n=13, mean ±s.d.
Procedure: Physiological recording and delivery of TBS or low frequency stimulation was performed as described above. Starting 20 min after TBS, rhodamine-phalloidin (6 μM/2-4 μl; from Sigma, St. Louis, Mo., or Invitrogen, Carlsbad, Calif.) was applied topically (Kramar et al. (2006) Proc. Natl. Acad. Sci., USA, 103: 5579-5784) via micropipette 3 times separated by 3 min. To test the effects of BDNF on actin polymerization, BDNF (2 nM) or artificial cerebral spinal fluid was delivered to WT and Hdh^Q111 slices via a reperfusion pump system (Cole-Palmer, Vernon Hills, Ill.) at 1 ml/min 1-2 h before recording. […]
Sections were examined with epifluorescence illumination using an Olympus AX70 photomicroscope. Quantitative analyses were carried out on three serial sections situated 20 to 80 μm below the surface of original slice. […] These images were then converted to grayscale and intensity levels were cropped at values determined for each experiment to visualize low-intensity labeling.
Labeled spine-like structures were measured and counted from a 550 μm^2 sampling zone in the proximal stratum radiatum between the two stimulating electrodes using in-house software described in detail previously (Kramar et al. (2006) Proc. Natl. Acad. Sci., USA, 103: 5579-5784; Lin et al. (2005) J. Neurosci. 25: 2062-2069). […]

[3] = tested on: hippocampal slices from Hdh^Q111 mice; test: Within-train facilitation of theta burst responses in hippocampal slices; details: BDNF-treated Hdh^Q111 slices
From the text: Events that occur during the two-second period of TBS can potently influence the threshold, initial expression, magnitude, and stability of LTP (Arai and Lynch (1992) Eur. J. Neurosci. 4: 411-419; Larson et al. (1986) Brain Res. 368: 347-350). […] In marked contrast, the facilitation of the second and subsequent burst responses, each a composite of four closely spaced fEPSPs, was greatly attenuated in Hdh^Q111 slices (FIG. 2, panel a, e.g. burst 4). The facilitation effect was quantified by expressing the areas of burst responses 2-10 as fractions of the area of the first burst response.
as §1, §2

B1: BDNF: the neurotrophin, Brain-Derived Neurotrophic Factor, delivered at 2 nM to hippocampal slices (protein, UniProt P23560 19-247, looked up)
Neurotrophic factor BDNF …: APMKEANIRGQGGLAYPGVRTHGTLESVNGPKAGSRGLTSLADTFEHVIEELLDEDQKVRPNEENNKDADLYTSRVMLSSQVPLEPPLLFLLEEYKNYLDAANMSMRVRRHSDPARRGELSVCDSISEWVTAADKKTAVDMSGGTVTVLEKVPVSKGQLKQYFYETKCNPMGYTKEGCRGIDKRHWNSQCRTTQSYVRALTMDSKKRIGWRFIRIDTSCVCTLTIKRGR
Which results are given for B1?
effect on baseline transmission ([1]; BDNF 2 nM infused for 60 min, Hdh^Q111 or WT slices): did not detectably change baseline transmission; LTP compared with WT slices ([1]; BDNF 2 nM, Hdh^Q111 slices (FIG. 7, panel a)): not detectably different from WTs; percent potentiation 45 min after TBS ([1]; BDNF 2 nM, Hdh^Q111 slices, mean ±s.d.): 43.6±23.5%; LTP at 20 min post-TBS (percent increase in responses from baseline) ([1]; BDNF 2 nM, Hdh^Q111 slices, n=11, mean ±s.d.): 59.9±28.3%; potentiation at end of 60 min post-TBS recording ([1]; BDNF 2 nM, subgroup of Hdh^Q111 slices, n=4): stable potentiation was present at the end of recording; number of phalloidin-labeled spines in the high-intensity bins [2]: 40.5±39.3 per 550 μm^2; effect on responses to stimulation bursts in the theta train [3]: did not facilitate responses to any stimulation burst; burst 9 greater than burst 1 ([3]; mean ±s.d.): −5.8±9.3%; Facilitation of the second burst response ([3]; relative to burst 1, mean ±s.d.): 46.1±10.2%
